Reference: patent US20180057603A1

Target: erbB2 (p185erbB2/HER2/neu) on SK-BR-3 cells (human) (UniProt P04626)
Assay: cell-based or functional assay

For anti-erbB2 mAb 4D5 (antibody), the foci less than 20 pixels in soft agar (SK-BR-3) was 72%.
